Data reported in patent US9138474B2, “Composition comprising expression or activity inhibitors of Ninjurin1 for the prevention and treatment of inflammatory disease” (SNU R&DB FOUNDATION, priority 2008, dated 2015).

Key:
Wnt7b expression = Wnt7b expression (RT-PCR) in BV2 cells expressing Myc-Ninjurin1 treated with p38 inhibitor; format: cell-based, rodent; details: 0, 10, 30 uM, 24 hours
Procedure: Primary cultured human microvascular pericytes (Applied Cell Biology Research Institute) were cultured in Dulbecco's modified Eagle's medium (DMEM); Raw 264.7 cells (TIB-71™) and BV2 cells were cultured in DMEM; and HUVEC cells were cultured in M199 supplemented with 20% FBS (Invitrogen, Grand Island, N.Y.). Those cells were cultured at 37° C. in humid air composed of […] and 5% CO2. Raw cells and BV2 cells were transformed by using Lipofectamine Plus Reagent (Invitrogen). Cell lysate was prepared by using lysis buffer (40 mM Tris-Cl pH 8.4, 10 mM EDTA, 120 mM NaCl, 0.1% NP-40). To prepare culture solution to treat human microvascular pericytes, transformed macrophages were cultured in serum (FBS)-free DMEM for 24 hours, which were then filtered with 0.22 […] filter paper (Millipore), followed by 10 fold concentration using centrifugation filtering tube (Millipore). For the chemical treatment, cells were cultured at the density of 60-70% and then treated with Ang1 and Ang2 (500-1000 ng/ml) independently or together in serum free condition for 14-16 hours. To understand signal transduction pathway, cells were transformed with Mock or Ninjurin1 cDNA. Serum was depleted for 14-16 hours and then the cells were treated with SB203580 (Sigma), the p38 inhibitor, for 24 hours. […]

[1] = test system: rodent originated macrophages (Raw264.7, BV2); test: Wnt7b and Ninjurin1 quantified by RT-PCR in macrophages in the presence of rh-Ang1 or rh-Ang2; format: cell-based; details: 0, 1 and 2.5 ug/ml
Procedure: Primary cultured human microvascular pericytes (Applied Cell Biology Research Institute) were cultured in Dulbecco's modified Eagle's medium (DMEM); Raw 264.7 cells (TIB-71™) and BV2 cells were cultured in DMEM; and HUVEC cells were cultured in M199 supplemented with 20% FBS (Invitrogen, Grand Island, N.Y.). Those cells were cultured at 37° C. in humid air composed of […] and 5% CO2. Raw cells and BV2 cells were transformed by using Lipofectamine Plus Reagent (Invitrogen). Cell lysate was prepared by using lysis buffer (40 mM Tris-Cl pH 8.4, 10 mM EDTA, 120 mM NaCl, 0.1% NP-40). To prepare culture solution to treat human microvascular pericytes, transformed macrophages were cultured in serum (FBS)-free DMEM for 24 hours, which were then filtered with 0.22 […] filter paper (Millipore), followed by 10 fold concentration using centrifugation filtering tube (Millipore). For the chemical treatment, cells were cultured at the density of 60-70% and then treated with Ang1 and Ang2 (500-1000 ng/ml) independently or together in serum free condition for 14-16 hours. To understand signal transduction pathway, cells were transformed with Mock or Ninjurin1 cDNA. Serum was depleted for 14-16 hours and then the cells were treated with SB203580 (Sigma), the p38 inhibitor, for 24 hours.
Particularly, RT-PCR and real time PCR were performed as follows: Transformed BV2 cells were cultured in DMEM supplemented with 1% serum for 2 days, and then RNA was extracted by using Trizol reagent (Invitrogen). Following primers were used for RT-PCR: Gapdh: forward primer 5′-[…]-3′ (SEQ. ID. NO: 4), reverse primer 5′-[…]-3′ (SEQ. ID. NO: 5); Ninjurin1: forward primer 5′-GAGTCGGGCACTGAGGA-3′ (SEQ. ID. NO: 6), reverse primer: 5′-GTTGCAGGGGTCTGGTCA-3′ (SEQ. ID. NO: 7); Ang1: forward primer 5′-[…]-3′ (SEQ. ID. NO: 8), reverse primer: 5′-[…]-3′ (SEQ. ID. NO: 9); Ang2: forward primer 5′-[…]-3′ (SEQ. ID. NO: 10), reverse primer: 5′-[…]-3′ (SEQ. ID. NO: 11); Wnt7b: forward primer 5′-[…]-3′ (SEQ. ID. NO: 12), reverse primer: 5′-[…]-3′ (SEQ. ID. NO: 13); Wnt7b: 2nd round forward primer 5′-[…]-3′ (SEQ. ID. NO: 14), reverse primer: 5′-[…]-3′ (SEQ. ID. NO: 15). The PCR products were separated on 1.2% agarose gel containing EtBr (ethidium bromide), followed by analysis by digital imaging. Primers used for real-time PCR were as follows: Ang2: forward primer 5′-[…]-3′ (SEQ. ID. NO: 16), reverse primer: 5′-[…]-3′ (SEQ. ID. NO: 17); Gapdh, Ang1 and Wnt7: same primers as used for RT-PCR were used. […]
To investigate interaction among Wnt7b, Ninjurin1, Ang1 and Ang2, Wnt7b and Ninjurin1 were quantified by RT-PCR in the presence of recombinant human Ang1 (rh-Ang1) and rh-Ang2 at different concentrations (0, 1 and 2.5 ug/ml) in rodent originated macrophages (Raw264.7, BV2).

For `C[S+]([O-])c1ccc(-c2nc(-c3ccncc3)c(-c3ccc(F)cc3)[nH]2)cc1` (centres unmarked) [p38 inhibitor, SB203580], the “Wnt7b expression stimulated by Ninjurin1” value (Wnt7b expression) was “reduced”.

B1: rh-Ang2: recombinant human Ang2 (angiopoietin-2), R&D Systems (protein, UniProt O15123 19-496, looked up)
Angiopoietin-2: YNNFRKSMDSIGKKQYQVQHGSCSYTFLLPEMDNCRSSSSPYVSNAVQRDAPLEYDDSVQRLQVLENIMENNTQWLMKLENYIQDNMKKEMVEIQQNAVQNQTAVMIEIGTNLLNQTAEQTRKLTDVEAQVLNQTTRLELQLLEHSLSTNKLEKQILDQTSEINKLQDKNSFLEKKVLAMEDKHIIQLQSIKEEKDQLQVLVSKQNSIIEELEKKIVTATVNNSVLQKQQHDLMETVNNLLTMMSTSNSAKDPTVAKEEQISFRDCAEVFKSGHTTNGIYTLTFPNSTEEIKAYCDMEAGGGGWTIIQRREDGSVDFQRTWKEYKVGFGNPSGEYWLGNEFVSQLTNQQRYVLKIHLKDWEGNEAYSLYEHFYLSSEELNYRIHLKGLTGTAGKISSISQPGNDFSTKDGDNDKCICKCSQMLTGGWWFDACGPSNLNGMYYPQRQNTNKFNGIKWYYWKGSGYSLKATTMMIRPADF
With B1 the Ninjurin1 expression [1] was “increased” and the Wnt7b expression [1] was “increased”.

B2: rh-Ang1: recombinant human Ang1 (angiopoietin-1), R&D Systems (protein, UniProt Q15389 16-498, looked up)
Angiopoietin-1: HIGCSNQRRSPENSGRRYNRIQHGQCAYTFILPEHDGNCRESTTDQYNTNALQRDAPHVEPDFSSQKLQHLEHVMENYTQWLQKLENYIVENMKSEMAQIQQNAVQNHTATMLEIGTSLLSQTAEQTRKLTDVETQVLNQTSRLEIQLLENSLSTYKLEKQLLQQTNEILKIHEKNSLLEHKILEMEGKHKEELDTLKEEKENLQGLVTRQTYIIQELEKQLNRATTNNSVLQKQQLELMDTVHNLVNLCTKEGVLLKGGKREEEKPFRDCADVYQAGFNKSGIYTIYINNMPEPKKVFCNMDVNGGGWTVIQHREDGSLDFQRGWKEYKMGFGNPSGEYWLGNEFIFAITSQRQYMLRIELMDWEGNRAYSQYDRFHIGNEKQNYRLYLKGHTGTAGKQSSLILHGADFSTKDADNDNCMCKCALMLTGGWWFDACGPSNLNGMFYTAGQNHGKLNGIKWHYFKGPSYSLRSTTMMIRPLDF
With B2 the Ninjurin1 expression [1] was “reduced” and the Wnt7b expression [1] was “reduced”.
